From US20150086574A1 (CELLERANT THERAPEUTICS, published 2015)
Values belong to the molecule of their own block, whether it stands above or below them.

How the values were obtained:
[1] = target: T cell Immunoglobulin- and Mucin domain-containing molecule 3 (TIM3), human, on cells (human) (UniProt Q8TDQ0); experiment: flow cytometry, PBMCs of AML patient 2, Blast population
[2] = target: T cell Immunoglobulin- and Mucin domain-containing molecule 3 (TIM3), human, on cells (human) (UniProt Q8TDQ0); experiment: flow cytometry, PBMCs of AML patient 1, Blast population
[3] = target: T cell Immunoglobulin- and Mucin domain-containing molecule 3 (TIM3), human, on cells (human) (UniProt Q8TDQ0); experiment: cell binding (flow cytometry), Pfeiffer cells
[4] = target: T cell Immunoglobulin- and Mucin domain-containing molecule 3 (TIM3), human, on cells (human) (UniProt Q8TDQ0); experiment: flow cytometry, PBMCs of AML patient 3, Blast population
[5] = target: T cell Immunoglobulin- and Mucin domain-containing molecule 3 (TIM3), human, on cells (human) (UniProt Q8TDQ0); experiment: flow cytometry, PBMCs of AML patient 3, CD34+CD38- population
[6] = target: T cell Immunoglobulin- and Mucin domain-containing molecule 3 (TIM3), human, on cells (human) (UniProt Q8TDQ0); experiment: flow cytometry; cells not named in the table (Example 5 uses Pfeiffer cells)
[7] = target: T cell Immunoglobulin- and Mucin domain-containing molecule 3 (TIM3), human, on cells (human) (UniProt Q8TDQ0); experiment: flow cytometry, PBMCs of AML patient 2, CD34+CD38- population
[8] = target: T cell Immunoglobulin- and Mucin domain-containing molecule 3 (TIM3), human, on cells (human) (UniProt Q8TDQ0); experiment: cell binding (flow cytometry), CMK cells
[9] = target: T cell Immunoglobulin- and Mucin domain-containing molecule 3 (TIM3), human, on cells (human) (UniProt Q8TDQ0); experiment: flow cytometry, PBMCs of AML patient 1, CD34+CD38- population
[10] = target: T cell Immunoglobulin- and Mucin domain-containing molecule 3 (TIM3), human, on cells (human) (UniProt Q8TDQ0); experiment: cell binding (flow cytometry), Daudi cells
[11] = target: T cell Immunoglobulin- and Mucin domain-containing molecule 3 (TIM3), human, on cells (human) (UniProt Q8TDQ0); experiment: flow cytometry, bone marrow cells of AML patient 2, Blast population
[12] = target: T cell Immunoglobulin- and Mucin domain-containing molecule 3 (TIM3), human, on cells (human) (UniProt Q8TDQ0); experiment: flow cytometry, bone marrow cells of AML patient 2, CD34+CD38- population
[13] = target: T cell Immunoglobulin- and Mucin domain-containing molecule 3 (TIM3), human, on cells (human) (UniProt Q8TDQ0); experiment: flow cytometry, CD34+ cells from a set of AML samples
[14] = target: T cell Immunoglobulin- and Mucin domain-containing molecule 3 (TIM3), human, on cells (human) (UniProt Q8TDQ0); experiment: cell-based or functional assay
[15] = target: T cell Immunoglobulin- and Mucin domain-containing molecule 3 (TIM3), human, on cells (human) (UniProt Q8TDQ0); experiment: flow cytometry, PBMCs of AML patient 5, Blast population
[16] = target: T cell Immunoglobulin- and Mucin domain-containing molecule 3 (TIM3), human, on cells (human) (UniProt Q8TDQ0); experiment: flow cytometry, bone marrow cells of AML patient 1, Blast population
[17] = target: T cell Immunoglobulin- and Mucin domain-containing molecule 3 (TIM3), human, on cells (human) (UniProt Q8TDQ0); experiment: flow cytometry, PBMCs of AML patient 4, CD34+CD38- population
[18] = target: T cell Immunoglobulin- and Mucin domain-containing molecule 3 (TIM3), human, on cells (human) (UniProt Q8TDQ0); experiment: flow cytometry, PBMCs of AML patient 5, CD34+CD38- population
[19] = target: T cell Immunoglobulin- and Mucin domain-containing molecule 3 (TIM3), human, on cells (human) (UniProt Q8TDQ0); experiment: flow cytometry, PBMCs of AML patient 4, Blast population
[20] = target: T cell Immunoglobulin- and Mucin domain-containing molecule 3 (TIM3), human, on cells (human) (UniProt Q8TDQ0); experiment: flow cytometry, bone marrow cells of AML patient 1, CD34+CD38- population

Sequence of T cell Immunoglobulin- and Mucin domain-containing molecule 3 (TIM3), human, on cells (human) (Q8TDQ0 22-301 limits assumed): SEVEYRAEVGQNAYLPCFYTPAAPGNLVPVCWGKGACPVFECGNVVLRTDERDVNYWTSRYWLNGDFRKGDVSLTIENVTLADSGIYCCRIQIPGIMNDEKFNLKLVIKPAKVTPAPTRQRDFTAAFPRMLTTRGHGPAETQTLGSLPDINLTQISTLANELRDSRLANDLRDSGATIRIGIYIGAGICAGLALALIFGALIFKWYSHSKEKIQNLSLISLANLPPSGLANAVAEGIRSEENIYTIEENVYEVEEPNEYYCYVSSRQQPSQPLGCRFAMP

percent binding [1]: 59.3%
percent binding [2]: 2.92%
Geomean [3]: 308
percentage of cell binding [3]: 97%
percent binding [4]: 1.01%
percent binding [5]: 0.17%
% Positive for TIM3 [6]: 89.9%
GeoMean (Intensity of TIM3 binding) [6]: 198
percent binding [7]: 64.8%
percentage of cell binding [8]: 19%
percent binding [9]: 3.26%
percentage of cell binding [10]: 90%
percent binding [11]: 1.8%
percent binding [12]: 1.6%
Positive/total (AML samples whose CD34+ cells were bound) (of 14 samples) [13]: 0
Molecule: TIM3 2E2 (antibody)

percent binding [1]: 68.1%
percent binding [2]: 3.13%
percentage of cell binding [3]: 85%
percent binding [4]: 0.83%
IFN-gamma release from activated CD4+ T cells (ELISA), antibody at 5 ug/ml (fold reduction) [14]: > 2
IL-6 release from activated CD4+ T cells (ELISA), antibody at 5 ug/ml (fold reduction) [14]: > 2
percent of antibody internalized after 20 minutes, Pfeiffer cells [14]: > 50%
percent binding [5]: 0.49%
% Positive for TIM3 [6]: 92.5%
GeoMean (Intensity of TIM3 binding) [6]: 83.8
percent binding [15]: 25%
percent binding [7]: 76.4%
percent binding [9]: 4.67%
percent binding [16]: 55.6%
percent binding [17]: 87%
percentage of cell binding [10]: 67%
percent binding [11]: 2.61%
percent binding [18]: 25%
percent binding [19]: 78%
percent binding [20]: 19.2%
percent binding [12]: 1.47%
B1: 8.16C10 (antibody, IgG1, V domains shown)
VH: QIQLQQSGPELVKPGASVKISYKASGYTFTDYYINWVKQKPGQGLEWIGWIYPGSGITKYNEKFKGKATLTVDSSSSTAYMQLSSLTSEDTAVYFCAIYGYDGGYAMDYWGQGTSVTVSS
VL: QIVLTQSPAIMSASPGEKVTLTCSASSSVSSSYLYWYQQKPGSSPKLWIYSTSNLASGVPARFSGGGSGTSYSLTISSMEAEDAASYFCHQWSTYPYTFGGGTKLEIKR
